# Data taken from patent US20260115256A1 (HANGZHOU SCIWIND BIOSCIENCES, published 2026).
# *1 amine or outer side, *2 acyl side, *3 side chain or, on linkers, in order; H or OH if unused. Bridges are numbered along the chain shown (N, C = ends). Where no end group is shown, it is not given here. Side-chain parts run from the residue outwards. [ ]: non-standard residue; d: D form. The star is where a group is joined. C20 diacid = O=C(O)CCCCCCCCCCCCCCCCCCC(=O)*; C18 diacid = O=C(O)CCCCCCCCCCCCCCCCC(=O)*; γGlu = O=C(O)[C@H](CCC(=O)[*:2])N[*:1]; Hyp = O=C(O)[C@@H]1C[C@@H](O)CN1; AEEA = NCCOCCOCC(=O)O
# T1: human amylin receptor (AMY3) on CHO-K1/Ga15/AMY3 cells (human, UniProt P30988 25-474; O60896 24-148)
# T1 sequence (looked up) 1: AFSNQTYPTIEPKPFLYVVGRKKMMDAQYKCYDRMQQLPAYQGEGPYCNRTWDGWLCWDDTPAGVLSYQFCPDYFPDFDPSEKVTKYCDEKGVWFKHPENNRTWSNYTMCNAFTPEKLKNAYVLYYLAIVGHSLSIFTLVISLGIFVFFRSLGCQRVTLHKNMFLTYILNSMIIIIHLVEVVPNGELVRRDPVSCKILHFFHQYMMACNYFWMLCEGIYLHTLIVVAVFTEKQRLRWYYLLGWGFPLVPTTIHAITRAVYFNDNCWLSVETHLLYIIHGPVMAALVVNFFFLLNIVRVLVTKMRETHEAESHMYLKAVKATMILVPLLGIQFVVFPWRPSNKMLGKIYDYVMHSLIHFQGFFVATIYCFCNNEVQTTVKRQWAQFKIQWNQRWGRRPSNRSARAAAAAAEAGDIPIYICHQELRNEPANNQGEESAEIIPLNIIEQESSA
# T1 sequence (looked up) 2: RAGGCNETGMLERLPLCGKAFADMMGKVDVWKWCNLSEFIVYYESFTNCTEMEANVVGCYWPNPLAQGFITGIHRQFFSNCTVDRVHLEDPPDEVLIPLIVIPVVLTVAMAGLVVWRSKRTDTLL
# Biological target: T1, human amylin receptor (AMY3) on …
# Test: cell-based or functional assay
row,Binder,"EC50, CRE-luciferase assay"
1,RCNTATCATQRLADFLRHSSNNLGK([AEEA-γGlu-C20 diacid])ILPPTNVGSNT[Hyp]-NH2 (disulfide 2-7 (inferred)) [PD120],0.023 nM
2,RCNTATCATQRLADFLRHK([AEEA-γGlu-C18 diacid])SNNLGPILPPTNVGSNT[Hyp]-NH2 (disulfide 2-7 (inferred)) [PD119],0.024 nM
3,RCNTATCATQRLADFLRHK([AEEA-AEEA-γGlu-C20 diacid])SNNLGPILPPTNVGSNT[Hyp]-NH2 (disulfide 2-7 (inferred)) [PD099],0.033 nM
4,RCNTATCATQRLADFLRHSK([AEEA-γGlu-C18 diacid])NNLGPILPPTNVGSNT[Hyp]-NH2 (disulfide 2-7 (inferred)) [PD117],0.014 nM
5,RCNTATCATQRLADFLRHSSNNK([AEEA-γGlu-C20 diacid])GPILPPTNVGSNT[Hyp]-NH2 (disulfide 2-7 (inferred)) [PD110],0.039 nM
6,RCNTATCATQRLADFLRHSK([AEEA-γGlu-C20 diacid])NNLGPILPPTNVGSNT[Hyp]-NH2 (disulfide 2-7 (inferred)) [PD116],0.033 nM
7,RCNTATCATQRLADFLRHSSNNLGK([γGlu-C20 diacid])ILPPTNVGSNT[Hyp]-NH2 (disulfide 2-7 (inferred)) [PD102],0.033 nM
8,RCNTATCATQRLADFLRHSSNNLGK([AEEA-AEEA-γGlu-C18 diacid])ILPPTNVGSNT[Hyp]-NH2 (disulfide 2-7 (inferred)) [PD105],0.033 nM
9,RCNTATCATQRLADFLRHSSNNLK([γGlu-C18 diacid])PILPPTNVGSNT[Hyp]-NH2 (disulfide 2-7 (inferred)) [PD107],0.027 nM
10,RCNTATCATQRLAEFLRHSSNNLK([γGlu-C20 diacid])PILPPTNVGSNTY-NH2 (disulfide 2-7 (inferred)) [PD017],0.772 nM
11,RCNTATCATQRLADFLRHSSNNLK([AEEA-γGlu-C18 diacid])PILPPTNVGSNT[Hyp]-NH2 (disulfide 2-7 (inferred)) [PD108],0.028 nM
12,RCNTATCATQRLADFLRHSSNK([AEEA-γGlu-C20 diacid])LGPILPPTNVGSNT[Hyp]-NH2 (disulfide 2-7 (inferred)) [PD112],0.03 nM
13,RCNTATCATQRLAEFLRHSSNNLK([γGlu-C20 diacid])PILPPTNVGSNTP-NH2 (disulfide 2-7 (inferred)) [PD009],0.067 nM
14,RCNTATCATQRLAEFLRHSSNNK([γGlu-C20 diacid])GPILPPTNVGSNTP-NH2 (disulfide 2-7 (inferred)) [PD008],0.281 nM
15,RCNTATCATQRLADFLRHSSNK([AEEA-γGlu-C18 diacid])LGPILPPTNVGSNT[Hyp]-NH2 (disulfide 2-7 (inferred)) [PD113],0.017 nM
16,RCNTATCATQRLADFLRHSSK([AEEA-γGlu-C20 diacid])NLGPILPPTNVGSNT[Hyp]-NH2 (disulfide 2-7 (inferred)) [PD114],0.029 nM
17,RCNTATCATQRLADFLRHSK([AEEA-AEEA-γGlu-C18 diacid])NNLGPILPPTNVGSNT[Hyp]-NH2 (disulfide 2-7 (inferred)) [PD097],0.014 nM
18,RCNTATCATQRLADFLRHSSNNLK([AEEA-γGlu-C20 diacid])PILPPTNVGSNT[Hyp]-NH2 (disulfide 2-7 (inferred)) [PD106],0.026 nM
19,RCNTATCATQRLADFLRHSSK([AEEA-γGlu-C18 diacid])NLGPILPPTNVGSNT[Hyp]-NH2 (disulfide 2-7 (inferred)) [PD115],0.011 nM
20,RCNTATCATQRLADFLRHSSNNK([AEEA-γGlu-C18 diacid])GPILPPTNVGSNT[Hyp]-NH2 (disulfide 2-7 (inferred)) [PD111],0.008 nM
21,RCNTATCATQRLADFLRHK([γGlu-C18 diacid])SNNLGPILPPTNVGSNT[Hyp]-NH2 (disulfide 2-7 (inferred)) [PD100],0.06 nM
22,RCNTATCATQRLADFLRHK([γGlu-C20 diacid])SNNLGPILPPTNVGSNT[Hyp]-NH2 (disulfide 2-7 (inferred)) [PD098],0.077 nM
23,RCNTATCATQRLADFLRHSSNNLGK([γGlu-C18 diacid])ILPPTNVGSNT[Hyp]-NH2 (disulfide 2-7 (inferred)) [PD104],0.011 nM
24,RCNTATCATQRLADFLRHK([AEEA-AEEA-γGlu-C18 diacid])SNNLGPILPPTNVGSNT[Hyp]-NH2 (disulfide 2-7 (inferred)) [PD101],0.012 nM
25,RCNTATCATQRLADFLRHSSNNLGK([AEEA-AEEA-γGlu-C20 diacid])ILPPTNVGSNT[Hyp]-NH2 (disulfide 2-7 (inferred)) [PD103],0.033 nM
26,RCNTATCATQRLADFLRHSSNNLK([AEEA-AEEA-γGlu-C18 diacid])PILPPTNVGSNT[Hyp]-NH2 (disulfide 2-7 (inferred)) [PD109],0.01 nM
27,RCNTATCATQRLADFLRHSSNNLGK([AEEA-γGlu-C18 diacid])ILPPTNVGSNT[Hyp]-NH2 (disulfide 2-7 (inferred)) [PD121],0.018 nM
28,RCNTATCATQRLADFLRHK([AEEA-γGlu-C20 diacid])SNNLGPILPPTNVGSNT[Hyp]-NH2 (disulfide 2-7 (inferred)) [PD118],0.032 nM
